Data set [1] can be described thus: protein accumulation on Gp78 siRNA, immunoblot. The settings on record: glycan lost; control: CD147(WT)-EGFP. On the technique in general: In western blotting, separated proteins are transferred to a membrane and probed.
The nature of data set [2]: immunofluorescence colocalisation with chaperones. The settings on record: glycan lost; control: CD147(WT)-EGFP.
Data set [3] can be described thus: anti-EGFP immunoblot of total lysates; mRNA unchanged. The settings on record: glycan lost; control: CD147(WT)-EGFP.
Data set [4] in a line: confocal immunofluorescence with ER-Tracker, stable cells. Conditions: glycan lost; control: CD147(WT)-EGFP.
Data set [5] can be described thus: immunofluorescence, aggregation with GRP78, 24 h castanospermine. Conditions: glycan changed form; control: CD147(WT)-EGFP cells without CAS.
Data set [6] can be described thus: confocal immunofluorescence with ER-Tracker, transient double mutants. The settings on record: glycan lost; control: CD147(WT)-EGFP.
Data set [7] can be described thus: immunofluorescence with CNX, 12 h castanospermine. Conditions: glycan changed form.

B1: CD147: N152Q (protein)
parent chain: MAAALFVLLGFALLGTHGASGAAGTVFTTVEDLGSKILLTCSLNDSATEVTGHRWLKGGVVLKEDALPGQKTEFKVDSDDQWGEYSCVFLPEPMGTANIQLHGPPRVKAVKSSEHINEGETAMLVCKSESVPPVTDWAWYKITDSEDKALMNGSESRFFVSSSQGRSELHIENLNMEADPGQYRCNGTSSKGSDQAIITLRVRSHLAALWPFLGIVAEVLVLVTIIFIYEKRRKPEDVLDDDDAGSAPLKSSGQHQNDKGKNVRQRNSS
Turning to B1, the degradation_or_half_life entry in data set [1] is “decreases”. The localisation_or_trafficking result is “increases” in data set [2] and “changes” in data set [4]. In addition, the expression_or_secretion entry in data set [3] was “decreases”.

B2: CD147: N44/152/186Q (protein)
parent chain: MAAALFVLLGFALLGTHGASGAAGTVFTTVEDLGSKILLTCSLNDSATEVTGHRWLKGGVVLKEDALPGQKTEFKVDSDDQWGEYSCVFLPEPMGTANIQLHGPPRVKAVKSSEHINEGETAMLVCKSESVPPVTDWAWYKITDSEDKALMNGSESRFFVSSSQGRSELHIENLNMEADPGQYRCNGTSSKGSDQAIITLRVRSHLAALWPFLGIVAEVLVLVTIIFIYEKRRKPEDVLDDDDAGSAPLKSSGQHQNDKGKNVRQRNSS
Turning to B2, the expression_or_secretion result in data set [3] is “decreases”. Also, the localisation_or_trafficking result in data set [4] is “changes”.

B3: CD147: castanospermine (CAS) 24 h (protein)
parent chain: MAAALFVLLGFALLGTHGASGAAGTVFTTVEDLGSKILLTCSLNDSATEVTGHRWLKGGVVLKEDALPGQKTEFKVDSDDQWGEYSCVFLPEPMGTANIQLHGPPRVKAVKSSEHINEGETAMLVCKSESVPPVTDWAWYKITDSEDKALMNGSESRFFVSSSQGRSELHIENLNMEADPGQYRCNGTSSKGSDQAIITLRVRSHLAALWPFLGIVAEVLVLVTIIFIYEKRRKPEDVLDDDDAGSAPLKSSGQHQNDKGKNVRQRNSS
As to B3, the stability_or_folding entry in data set [5] was “decreases”.

B4: CD147: N44/186Q (protein)
parent chain: MAAALFVLLGFALLGTHGASGAAGTVFTTVEDLGSKILLTCSLNDSATEVTGHRWLKGGVVLKEDALPGQKTEFKVDSDDQWGEYSCVFLPEPMGTANIQLHGPPRVKAVKSSEHINEGETAMLVCKSESVPPVTDWAWYKITDSEDKALMNGSESRFFVSSSQGRSELHIENLNMEADPGQYRCNGTSSKGSDQAIITLRVRSHLAALWPFLGIVAEVLVLVTIIFIYEKRRKPEDVLDDDDAGSAPLKSSGQHQNDKGKNVRQRNSS
As for B4, the localisation_or_trafficking result in data set [6] was “no change”.

B5: CD147: N152/186Q (protein)
parent chain: MAAALFVLLGFALLGTHGASGAAGTVFTTVEDLGSKILLTCSLNDSATEVTGHRWLKGGVVLKEDALPGQKTEFKVDSDDQWGEYSCVFLPEPMGTANIQLHGPPRVKAVKSSEHINEGETAMLVCKSESVPPVTDWAWYKITDSEDKALMNGSESRFFVSSSQGRSELHIENLNMEADPGQYRCNGTSSKGSDQAIITLRVRSHLAALWPFLGIVAEVLVLVTIIFIYEKRRKPEDVLDDDDAGSAPLKSSGQHQNDKGKNVRQRNSS
On to B5, for which, in data set [6], the localisation_or_trafficking result was “changes”.

B6: CD147: N44Q (protein)
parent chain: MAAALFVLLGFALLGTHGASGAAGTVFTTVEDLGSKILLTCSLNDSATEVTGHRWLKGGVVLKEDALPGQKTEFKVDSDDQWGEYSCVFLPEPMGTANIQLHGPPRVKAVKSSEHINEGETAMLVCKSESVPPVTDWAWYKITDSEDKALMNGSESRFFVSSSQGRSELHIENLNMEADPGQYRCNGTSSKGSDQAIITLRVRSHLAALWPFLGIVAEVLVLVTIIFIYEKRRKPEDVLDDDDAGSAPLKSSGQHQNDKGKNVRQRNSS
Regarding B6, the localisation_or_trafficking result in data set [4] was “changes”.

B7: CD147: N44/152Q (protein)
parent chain: MAAALFVLLGFALLGTHGASGAAGTVFTTVEDLGSKILLTCSLNDSATEVTGHRWLKGGVVLKEDALPGQKTEFKVDSDDQWGEYSCVFLPEPMGTANIQLHGPPRVKAVKSSEHINEGETAMLVCKSESVPPVTDWAWYKITDSEDKALMNGSESRFFVSSSQGRSELHIENLNMEADPGQYRCNGTSSKGSDQAIITLRVRSHLAALWPFLGIVAEVLVLVTIIFIYEKRRKPEDVLDDDDAGSAPLKSSGQHQNDKGKNVRQRNSS
For the protein B7, the localisation_or_trafficking entry in data set [6] is “changes”.

B8: CD147: N186Q (protein)
parent chain: MAAALFVLLGFALLGTHGASGAAGTVFTTVEDLGSKILLTCSLNDSATEVTGHRWLKGGVVLKEDALPGQKTEFKVDSDDQWGEYSCVFLPEPMGTANIQLHGPPRVKAVKSSEHINEGETAMLVCKSESVPPVTDWAWYKITDSEDKALMNGSESRFFVSSSQGRSELHIENLNMEADPGQYRCNGTSSKGSDQAIITLRVRSHLAALWPFLGIVAEVLVLVTIIFIYEKRRKPEDVLDDDDAGSAPLKSSGQHQNDKGKNVRQRNSS
Consider B8, for which the localisation_or_trafficking entry in data set [4] was “changes”.

B9: CD147: castanospermine (CAS) 12 h on N44/186Q (protein)
parent chain: MAAALFVLLGFALLGTHGASGAAGTVFTTVEDLGSKILLTCSLNDSATEVTGHRWLKGGVVLKEDALPGQKTEFKVDSDDQWGEYSCVFLPEPMGTANIQLHGPPRVKAVKSSEHINEGETAMLVCKSESVPPVTDWAWYKITDSEDKALMNGSESRFFVSSSQGRSELHIENLNMEADPGQYRCNGTSSKGSDQAIITLRVRSHLAALWPFLGIVAEVLVLVTIIFIYEKRRKPEDVLDDDDAGSAPLKSSGQHQNDKGKNVRQRNSS
Consider B9, for which the localisation_or_trafficking result in data set [7] (control: CD147(N44/186Q)-EGFP cells without CAS) was “changes”.

B10: CD147: castanospermine (CAS) 12 h (protein)
parent chain: MAAALFVLLGFALLGTHGASGAAGTVFTTVEDLGSKILLTCSLNDSATEVTGHRWLKGGVVLKEDALPGQKTEFKVDSDDQWGEYSCVFLPEPMGTANIQLHGPPRVKAVKSSEHINEGETAMLVCKSESVPPVTDWAWYKITDSEDKALMNGSESRFFVSSSQGRSELHIENLNMEADPGQYRCNGTSSKGSDQAIITLRVRSHLAALWPFLGIVAEVLVLVTIIFIYEKRRKPEDVLDDDDAGSAPLKSSGQHQNDKGKNVRQRNSS
B10: in data set [7] (control: CD147(WT)-EGFP cells without CAS), the localisation_or_trafficking entry is listed as “changes”.

Values taken from publication PMC5116672.
